Experimental data published in US20210324359A1, “USE OF GRAM-NEGATIVE LYSIN-ANTIMICROBIAL PEPTIDE (AMP) POLYPEPTIDE CONSTRUCTS IN TREATING ENDOCARDITIS” (priority 2020, published 2021).
Read-outs that look alike come from different tables or passages of the source.

How the values were obtained:
Staphylococcus aureus = assay: Daptomycin MIC with […], positive control (Table 10); format: cell-based; conditions: for fold increase in MIC with SURVANTA: Staphylococcus aureus
Experimental: As a positive control, the impact of […] ® on daptomycin (DAP) activity against Staphylococcus aureus was also tested.

[1] = test system: Pseudomonas aeruginosa strain CFS-1292 (meropenem resistant); conditions: for Fold Increase (MIC) in presence of cations: CFS-1292
Experimental: The activity of selected GN lysins and constructs in the presence of divalent cations was evaluated, and the impact of divalent cations at physiological concentrations was examined in the MIC assay format.

[2] = test system: P. aeruginosa isolate CFS-1292; assay: MIC in CAA supplemented with a range of […] concentrations (Table 10); format: cell-based, Pseudomonas aeruginosa
[3] = test system: carbapenem-resistant P. aeruginosa strains; assay: Resensitization of carbapenem-resistant strains, combinations with imipenem or meropenem (Tables 18-22); format: cell-based, Pseudomonas aeruginosa
Experimental: Such resensitization may be determined by combining the present lysins or lysin-AMP polypeptide constructs with an antibiotic in a checkerboard assay as described herein. Antibiotic-resistant bacteria, such as carbapenem-resistant P. aeruginosa, are added to the lysin or lysin-AMP polypeptide construct combination. […] See Clinical and Laboratory Standards Institute (CLSI), CLSI. […] M100 Performance Standards for Antimicrobial Susceptibility Testing; 29th Edition. Clinical and Laboratory Standards Institute, Wayne, Pa., which is herein incorporated by reference in its entirety.
Up to seven carbapenem-resistant isolates were assessed. […] See Clinical and Laboratory Standards Institute (CLSI), CLSI. […] M100 Performance Standards for Antimicrobial Susceptibility Testing; 29th Edition. Clinical and Laboratory Standards Institute, Wayne, Pa.

daptomycin
fold increase in MIC with SURVANTA (Staphylococcus aureus; 0.09% SURVANTA): 32 fold
fold increase in MIC with SURVANTA (Staphylococcus aureus; 0.19% SURVANTA): 32 fold
fold increase in MIC with SURVANTA (Staphylococcus aureus; 1.56% SURVANTA): 128 fold
fold increase in MIC with SURVANTA (Staphylococcus aureus; 3.15% SURVANTA): 128 fold
inhibition by pulmonary surfactant (Staphylococcus aureus; SURVANTA 0.09-[…], S. aureus): inhibitory to the activity of DAP

B1: GN123: lysin obtained from Pseudomonas phage PhiPA3 (SEQ ID NO: 173) (protein)
chain: MTLLKKGDKGDAVKQLQQKLKDLGYTLGVDGNFGNGTDTVVRSFQTKMKLSVDGVVGNGTMSTIDSTLAGIKAWKTSVPFPATNKSRAMAMPTLTEIGRLTNVDPKLLATFCSIESAFDYTAKPYKPDGTVYSSAEGWFQFLDATWDDEVRKHGKQYSFPVDPGRSLRKDPRANGLMGAEFLKGNAAILRPVLGHEPSDTDLYLAHFMGAGGAKQFLMADQNKLAAELFPGPAKANPNIFYKSGNIARTLAEVYAVLDAKVAKHRA
modifications: Pseudomonas phage PhiPA3
Fold Increase (MIC) in presence of cations ([1]; 25% CAA + […] CaCl2 (high)): 1 fold
Fold Increase (MIC) in presence of cations ([1]; 25% CAA + […] CaCl2 (low)): 1 fold
Fold Increase (MIC) in presence of cations ([1]; 25% CAA + […] CaCl2 (medium)): 1 fold
Fold Increase (MIC) in presence of cations ([1]; 25% CAA + […] CaCl2 and […] MgCl2): 1 fold
Fold Increase (MIC) in presence of cations ([1]; 25% CAA + […] MgCl2 (high)): 1 fold
Fold Increase (MIC) in presence of cations ([1]; 25% CAA + […] MgCl2 (low)): 1 fold
Fold Increase (MIC) in presence of cations ([1]; 25% CAA + […] MgCl2 (medium)): 1 fold
MIC in 25% CAA ([1]; strain CFS-1292, no added cations): 2 µg/mL
fold increase in MIC with SURVANTA ([2]; 0.09% SURVANTA): 1 fold
fold increase in MIC with SURVANTA ([2]; 0.19% SURVANTA): 1 fold
fold increase in MIC with SURVANTA ([2]; 1.56% SURVANTA): 1 fold
fold increase in MIC with SURVANTA ([2]; 3.15% SURVANTA): 2 fold
resensitization to carbapenems in synergistic combinations ([3]; imipenem (IPM) and meropenem (MEM), carbapenem-resistant isolates): reductions of IPM and MEM MICS to below breakpoint values
lysin MIC, Combination ([3]; in combination with imipenem, isolate PA19): 0.125 µg/mL
lysin MIC, Combination ([3]; in combination with imipenem, isolate PA20): 2 µg/mL
lysin MIC, Combination ([3]; in combination with imipenem, isolate PA21): 1 µg/mL
lysin MIC, Combination ([3]; in combination with imipenem, isolate PA22): 1 µg/mL
lysin MIC, Combination ([3]; in combination with imipenem, isolate PA23): 2 µg/mL
lysin MIC, Combination ([3]; in combination with imipenem, isolate PA24): 2 µg/mL
lysin MIC, Combination ([3]; in combination with imipenem, isolate WC-452): 2 µg/mL
lysin MIC, Combination ([3]; in combination with meropenem, isolate PA19): 0.25 µg/mL
lysin MIC, Combination ([3]; in combination with meropenem, isolate PA20): 1 µg/mL
lysin MIC, Combination ([3]; in combination with meropenem, isolate PA21): 1 µg/mL
lysin MIC, Combination ([3]; in combination with meropenem, isolate PA22): 1 µg/mL
lysin MIC, Combination ([3]; in combination with meropenem, isolate PA23): 1 µg/mL
lysin MIC, Combination ([3]; in combination with meropenem, isolate PA24): 0.5 µg/mL
lysin MIC, Combination ([3]; in combination with meropenem, isolate WC-452): 1 µg/mL
MIC, Alone ([3]; isolate PA19): 8 µg/mL
MIC, Alone ([3]; isolate PA20): 16 µg/mL
MIC, Alone ([3]; isolate PA21): 8 µg/mL
MIC, Alone ([3]; isolate PA22): 16 µg/mL
MIC, Alone ([3]; isolate PA23): 8 µg/mL
MIC, Alone ([3]; isolate PA24): 16 µg/mL
MIC, Alone ([3]; isolate WC-452): 16 µg/mL
FICI ([3]; lysin + imipenem, isolate PA19): 0.03
FICI ([3]; lysin + imipenem, isolate PA20): 0.188
FICI ([3]; lysin + imipenem, isolate PA21): 0.141
FICI ([3]; lysin + imipenem, isolate PA22): 0.188
FICI ([3]; lysin + imipenem, isolate PA23): 0.281
FICI ([3]; lysin + imipenem, isolate PA24): 0.188
FICI ([3]; lysin + imipenem, isolate WC-452): 0.188
FICI ([3]; lysin + meropenem, isolate PA19): 0.046
FICI ([3]; lysin + meropenem, isolate PA20): 0.094
FICI ([3]; lysin + meropenem, isolate PA21): 0.156
FICI ([3]; lysin + meropenem, isolate PA22): 0.125
FICI ([3]; lysin + meropenem, isolate PA23): 0.156
FICI ([3]; lysin + meropenem, isolate PA24): 0.094
FICI ([3]; lysin + meropenem, isolate WC-452): 0.125
